Results published in paper PMC7667676.

Molecular target: endogenous phosphorylated p38 (P-p38) (human (endogenous in Huh7.5.1)) (UniProt Q16539)
UniProt Q16539, sequence (Q16539 whole entry): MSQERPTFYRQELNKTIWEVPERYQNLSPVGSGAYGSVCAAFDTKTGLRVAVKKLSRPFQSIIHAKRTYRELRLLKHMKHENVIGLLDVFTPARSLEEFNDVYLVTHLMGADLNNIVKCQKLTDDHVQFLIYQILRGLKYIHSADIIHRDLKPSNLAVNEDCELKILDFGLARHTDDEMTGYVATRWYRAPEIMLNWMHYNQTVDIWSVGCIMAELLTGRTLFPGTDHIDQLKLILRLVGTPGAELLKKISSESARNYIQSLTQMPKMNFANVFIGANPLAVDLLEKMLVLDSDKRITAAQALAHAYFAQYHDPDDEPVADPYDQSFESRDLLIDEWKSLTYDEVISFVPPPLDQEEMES

With “HCV core protein N-terminal peptide (CN-peptide)” the reduction of intracellular HCV RNA (qRT-PCR) in JFH1-infected primary human hepatocytes incubated with the CN-peptide for 72 h; the pair blocked is p38α and the HCV core protein (m8 and m9) was 91%.
